Legend:
[1] = biological target: T1, DNA polymerase beta I260Q (NMR, crystal) (UniProt P06746 1-335, I260Q); experiment: NMR; binary, 10 mM MgCl2; NMR: 50 mM HEPES, 100 mM KCl, 2 mM DTT, 10 mM MgCl2, 10% D2O, pH 7.4; crystals: 18-20% PEG 3350, 50 mM HEPES pH 7.5, 175-250 mM Na acetate, 2 mM TCEP, 1% tert-b
[2] = biological target: T1, DNA polymerase beta I260Q (NMR, crystal); experiment: X-ray crystallography; binary; NaI soak; NMR: 50 mM HEPES, 100 mM KCl, 2 mM DTT, 10 mM MgCl2, 10% D2O, pH 7.4; crystals: 18-20% PEG 3350, 50 mM HEPES pH 7.5, 175-250 mM Na acetate, 2 mM TCEP, 1% tert-b

B1: NMR substrate template T (20) (dsDNA)
DNA 1: CGACCGACTGCGCATCAGCC
DNA 2: GGCTGATGCGC
DNA 3: GTCGGTCG
binding result [1]: binds

B2: X-ray substrate template A (16) (dsDNA)
DNA 1: CCGACAGCGCATCAGC
DNA 2: GCTGATGCGC
DNA 3: GTCGG
binding result [2]: binds
